# Experimental data as given in PMC9060465 (2022).
# Read-outs that look alike come from different tables or passages of the source. Where no end group is shown, it is not given here. [ ]: non-standard residue; d: D form. Aib = CC(C)(N)C(=O)O
# T1: human GIPR expressed in HEK293 cells (human, UniProt P48546 22-466)
# T1 chain: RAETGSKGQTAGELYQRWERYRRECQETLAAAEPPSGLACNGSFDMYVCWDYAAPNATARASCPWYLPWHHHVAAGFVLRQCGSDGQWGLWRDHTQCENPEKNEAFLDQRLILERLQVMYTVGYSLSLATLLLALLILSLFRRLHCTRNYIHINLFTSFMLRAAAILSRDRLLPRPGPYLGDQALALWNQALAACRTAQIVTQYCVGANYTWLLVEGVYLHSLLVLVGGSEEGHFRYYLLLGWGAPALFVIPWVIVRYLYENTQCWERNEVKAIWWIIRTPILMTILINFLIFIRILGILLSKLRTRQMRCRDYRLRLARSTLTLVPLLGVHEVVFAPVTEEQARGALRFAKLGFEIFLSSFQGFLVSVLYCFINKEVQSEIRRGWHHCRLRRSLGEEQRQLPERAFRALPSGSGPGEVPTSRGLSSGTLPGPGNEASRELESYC
# T2: human GLP-1R expressed in HEK293 cells (human, UniProt P43220 24-463)
# T2 chain: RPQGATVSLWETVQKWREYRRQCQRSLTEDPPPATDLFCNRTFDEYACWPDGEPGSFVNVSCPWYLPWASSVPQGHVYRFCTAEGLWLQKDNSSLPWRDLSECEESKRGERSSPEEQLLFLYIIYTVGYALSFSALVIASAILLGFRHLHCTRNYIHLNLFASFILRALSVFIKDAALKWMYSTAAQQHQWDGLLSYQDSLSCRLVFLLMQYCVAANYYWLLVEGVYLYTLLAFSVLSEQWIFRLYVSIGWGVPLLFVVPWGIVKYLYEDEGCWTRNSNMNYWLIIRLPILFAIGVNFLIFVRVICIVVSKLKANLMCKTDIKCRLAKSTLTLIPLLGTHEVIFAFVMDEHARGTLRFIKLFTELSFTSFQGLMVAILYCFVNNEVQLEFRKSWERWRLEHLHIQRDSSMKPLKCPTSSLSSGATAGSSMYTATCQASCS
# T3: isolated extracellular domain (ECD) of human GLP-1R, amino acids 24 to 145 (human, UniProt P43220 24-145)
# T3 chain: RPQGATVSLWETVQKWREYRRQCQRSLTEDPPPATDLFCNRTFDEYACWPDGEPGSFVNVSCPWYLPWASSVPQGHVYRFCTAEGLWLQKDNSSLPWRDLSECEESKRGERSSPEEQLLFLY
# Assays:
# [1] = target: T1, human GIPR expressed in HEK293 cells; test: [125I]GIP competition, cell membranes
# [2] = target: T2, human GLP-1R expressed in HEK293 cells; test: [125I]GLP-1 competition, cell membranes
# [3] = target: T1, human GIPR expressed in HEK293 cells; test: [125I]GIP competition, cell membranes
# [4] = target: T2, human GLP-1R expressed in HEK293 cells; test: [125I]GLP-1 competition, cell membranes
# [5] = target: T3, isolated extracellular domain (ECD) of …; test: SPR; kinetic fit
binder,measurement,setting,value
"HAEGTFTSDYSI[Aib]LDKIAQKAFVQWLIAGGPSSGAPPPS (not fully specified (residue 2, C-terminus); ends and bridges not checked)",Ki,[1],416 pM
same,Ki,[2],599 pM
YAEGTFTSDYSIALDKIAQKAFVQWLIAGGPSSGAPPPS (not fully specified) [tirzepatide (LY3298176)],Ki,[3],87 pM
YAEGTFTSDVSSYLEGQAAKEFIAWLVKGR (not fully specified (C-terminus)) [GLP-1H7Y],Ki,[1],> 128000 pM
YAEGTFTSDYSI[Aib]LDKIAQKAFVQWLIAGGPSSGAPPPS [tirzepatide analog lacking the lipid moiety (TZP^ΔC20)],Ki,[4],2670 pM
same,Ki,[3],23.5 pM
same,Kd,[5],70600 pM
